Experimental data as given in US20100048671.

Target: T7-tagged tyrosine kinase Etk (UniProt P51813)
Sequence (P51813 whole entry): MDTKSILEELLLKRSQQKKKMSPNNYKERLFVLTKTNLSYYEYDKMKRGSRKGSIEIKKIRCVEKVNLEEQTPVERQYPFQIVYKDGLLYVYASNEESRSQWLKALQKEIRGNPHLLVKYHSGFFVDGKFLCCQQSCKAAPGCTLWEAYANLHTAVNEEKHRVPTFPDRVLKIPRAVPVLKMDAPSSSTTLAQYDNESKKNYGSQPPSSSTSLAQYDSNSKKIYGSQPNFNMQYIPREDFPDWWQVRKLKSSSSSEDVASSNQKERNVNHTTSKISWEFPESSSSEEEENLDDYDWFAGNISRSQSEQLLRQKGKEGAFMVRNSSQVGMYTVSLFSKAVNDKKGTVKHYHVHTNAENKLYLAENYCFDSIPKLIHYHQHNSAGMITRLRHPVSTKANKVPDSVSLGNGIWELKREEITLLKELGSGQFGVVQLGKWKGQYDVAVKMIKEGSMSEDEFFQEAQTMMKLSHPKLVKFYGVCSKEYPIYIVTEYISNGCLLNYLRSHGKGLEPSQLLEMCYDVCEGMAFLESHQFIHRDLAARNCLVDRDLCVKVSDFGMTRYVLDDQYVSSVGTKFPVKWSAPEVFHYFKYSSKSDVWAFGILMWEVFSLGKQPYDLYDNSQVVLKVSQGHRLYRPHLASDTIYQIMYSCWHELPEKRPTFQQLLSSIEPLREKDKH

Sequence of Flag-tagged human 44 kD Pim-1 (Pim-1L) (chain, as listed by the source): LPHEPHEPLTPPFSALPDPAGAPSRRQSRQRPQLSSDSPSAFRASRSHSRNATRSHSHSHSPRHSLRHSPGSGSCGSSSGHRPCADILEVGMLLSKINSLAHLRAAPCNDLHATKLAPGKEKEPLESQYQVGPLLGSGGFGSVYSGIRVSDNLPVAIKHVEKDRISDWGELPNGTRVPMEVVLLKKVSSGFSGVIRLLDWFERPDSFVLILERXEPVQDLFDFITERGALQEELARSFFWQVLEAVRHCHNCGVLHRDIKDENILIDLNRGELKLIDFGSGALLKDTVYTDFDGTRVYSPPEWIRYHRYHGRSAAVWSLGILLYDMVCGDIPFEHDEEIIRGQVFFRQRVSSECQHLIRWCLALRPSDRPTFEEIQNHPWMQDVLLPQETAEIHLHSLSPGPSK
Sequence of Flag-tagged Pim-1LΔP (Pim-1L with the first 15 amino acids deleted) (chain, as listed by the source mutant): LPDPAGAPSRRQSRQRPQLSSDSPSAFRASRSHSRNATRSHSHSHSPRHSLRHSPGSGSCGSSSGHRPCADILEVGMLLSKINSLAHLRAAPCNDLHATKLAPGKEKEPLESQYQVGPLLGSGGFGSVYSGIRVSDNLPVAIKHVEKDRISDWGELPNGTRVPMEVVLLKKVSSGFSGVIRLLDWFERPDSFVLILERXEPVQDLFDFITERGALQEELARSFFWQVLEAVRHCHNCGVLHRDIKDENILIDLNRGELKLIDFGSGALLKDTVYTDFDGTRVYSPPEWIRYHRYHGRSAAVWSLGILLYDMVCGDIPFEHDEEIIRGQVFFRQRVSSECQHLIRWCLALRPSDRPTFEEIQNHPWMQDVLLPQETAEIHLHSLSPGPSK

Substance	in vitro kinase assay of Etk (tyrosine phosphorylation of the substrate Gab1)	tyrosine phosphorylation of Etk (IP anti-Etk, blot anti-phosphotyrosine)
Flag-tagged Pim-1LΔP (Pim-1L with the first 15 amino acids deleted)	Deletion of the proline-rich PXXP motifs of Pim-1L (Pim-1LΔP) dramatically diminished its effects on the Etk kinase activity	–
Flag-tagged human 44 kD Pim-1 (Pim-1L)	Co-expression of Etk with Pim-1L enhanced the kinase activity of Etk	unexpected robust increase of tyrosine phosphorylation of Etk
